# Reference: the supplement of paper PMC7877785
# ± gives the uncertainty stated by the source.
# Experiment: self-splicing fitness, log relative to wild type (ln ratio); higher = more splicing; Tetrahymena group I intron in knt gene, E. coli kanamycin selection, DiMSum; sequences stand for … in CUCUCU…GGAGGGAAAAGUUAUCAGGCAUGCACCUGGUAGCUAGUCUUUAAACCAAUAGAUUGCAUCGGUUUAAAAGGCAAGACCGUCAAAUUGCGGGAAAGGGGUCAACAGCCGUUCAGUACCAAGUCUCAGGGGAAACUUUGAGAUGGCCUUGCAAAGGGUAUGGUAAUAAGCUGACGGACAUGGUCCUAACCACGCAGCCAAGUCCUAAGUCAACAGAUCUUCUGUUGAUAUGGAUGCAGUUCACAGACUAAAUGUCGGUCGGGGAAGAUGUAUUCUUCUCAUAAGAUAUAGUCGGACCUCUCCUUAAUGGGAGCUAGCGGAUGAAGUGAUGCAACACUGGAGCCGCUGGGAACUAAUUUGUAUGCGAAAGUAUAUUGAUUAGUUUUGGAGUACUCGUGGUCG
# Outline: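 Pooled colonies went to amplicon sequencing on an Illumina HiSeq 2500 after six replicate transformations. The plates were LB agar with 100 μg/mL carbenicillin, 50 μM IPTG and 0.2% rhamnose, with or without 25 μg/mL kanamycin, incubated overnight at 37°C or 30°C. The E. coli BL21(DE3) library had all eight P1ex-region intron nucleotides randomised, the intron placed in the knt kanamycin-resistance gene on pET-22b(+). DiMSum fitness is the error-weighted combination of replicate fold changes, kanamycin against none, normalised to wild type.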
Sequence,self-splicing fitness (ln) (30 °C),self-splicing fitness (ln) (37 °C)
AAGAAGCAAUAUUACGAUUG,-2.85 ± 0.26,-1.78 ± 0.19
AGAGAGCAAUAUUACGACGA,–,-1.61 ± 0.29
GGUAAGCAAUAUUACGUCCU,-1.17 ± 0.2,-0.999 ± 0.23
CUUUAGCAAUAUUACGUCAG,-1.03 ± 0.12,-0.4 ± 0.13
AUUUAGCAAUAUUACGAUCC,-0.5 ± 0.4,-0.408 ± 0.23
CAAUAGCAAUAUUACGAGUC,-4.09 ± 0.34,-2.75 ± 0.28
GAGGAGCAAUAUUACGGGAC,-2.42 ± 0.27,-2.41 ± 0.27
UGGUAGCAAUAUUACGGAUG,-1.34 ± 0.15,0.065 ± 0.13
GGCUAGCAAUAUUACGCGAG,-4.46 ± 0.39,-2.74 ± 0.28
CUCAAGCAAUAUUACGUUCU,-3.9 ± 0.19,-2.68 ± 0.17
CACCAGCAAUAUUACGAAUA,-3.93 ± 0.21,-2.62 ± 0.16
CUAAAGCAAUAUUACGCUGU,-3.72 ± 0.29,-2.39 ± 0.21
AUCGAGCAAUAUUACGCUUG,-2.41 ± 0.18,-1.1 ± 0.3
CGCUAGCAAUAUUACGCUCG,-1.72 ± 0.22,-1.02 ± 0.4
UCCCAGCAAUAUUACGCUGA,-2.26 ± 0.12,-3.02 ± 0.21
AUUAAGCAAUAUUACGUGUU,-2.6 ± 0.11,-0.83 ± 0.098
GUGGAGCAAUAUUACGGAGU,-3.56 ± 0.31,-2.25 ± 0.29
AGGUAGCAAUAUUACGUAGC,-2.916 ± 0.021,-1.94 ± 0.036
ACAUAGCAAUAUUACGGUAG,-4.45 ± 0.42,-2.89 ± 0.32
ACCUAGCAAUAUUACGAUGU,-0.605 ± 0.045,0.0835 ± 0.065
AUAGAGCAAUAUUACGAGUA,-3.77 ± 0.33,-2.52 ± 0.28
UCACAGCAAUAUUACGUGUU,-3.9 ± 0.13,-2.46 ± 0.11
AAACAGCAAUAUUACGAUUA,-1.16 ± 0.092,-0.343 ± 0.094
CGCAAGCAAUAUUACGUUGA,-2.6 ± 0.13,-2.02 ± 0.15
UCAGAGCAAUAUUACGAGCG,-4.27 ± 0.36,-1.23 ± 0.14

Sequence,self-splicing fitness (ln) (30 °C),self-splicing fitness (ln) (37 °C)
UCGAAGCAAUAUUACGCCUU,-3.4 ± 0.25,-3.23 ± 0.26
AGGUAGCAAUAUUACGUGCU,-0.841 ± 0.014,-0.391 ± 0.033
UAGGAGCAAUAUUACGUGCA,-1.88 ± 0.17,-1.41 ± 0.19
CCAUAGCAAUAUUACGACUU,-2.46 ± 0.17,-3.03 ± 0.32
AGCCAGCAAUAUUACGAACC,-0.758 ± 0.12,-0.0185 ± 0.11
CUCAAGCAAUAUUACGCAGG,-2.99 ± 0.23,-2.84 ± 0.31
UAUUAGCAAUAUUACGUACC,-3.37 ± 0.37,-1.26 ± 0.35
CGAAAGCAAUAUUACGUUUC,-3.81 ± 0.2,-2.15 ± 0.16
AGCCAGCAAUAUUACGGCAU,-1.31 ± 0.099,-1.15 ± 0.12
AAAUAGCAAUAUUACGGAAA,-2.87 ± 0.26,-1.53 ± 0.17
CGUAAGCAAUAUUACGAUGG,-1.37 ± 0.097,-0.574 ± 0.13
UUCCAGCAAUAUUACGGCGU,-1.42 ± 0.079,-1.19 ± 0.091
GGGAAGCAAUAUUACGCCGU,-0.357 ± 0.36,-0.232 ± 0.31
GACUAGCAAUAUUACGCUUA,-0.282 ± 0.17,-0.7 ± 0.14
CCACAGCAAUAUUACGUUGA,-3.67 ± 0.17,-3.31 ± 0.18
AAGGAGCAAUAUUACGACGA,-1.94 ± 0.15,-0.382 ± 0.11
UCACAGCAAUAUUACGGUUC,-2.91 ± 0.11,-2.7 ± 0.19
AGGUAGCAAUAUUACGCGGU,-3.312 ± 0.024,-2.14 ± 0.037
CCAGAGCAAUAUUACGCGAG,-2.77 ± 0.17,-2.36 ± 0.25
AACAAGCAAUAUUACGAUUC,-1.61 ± 0.11,-0.551 ± 0.12
AUUCAGCAAUAUUACGCUAA,-0.96 ± 0.094,-0.0329 ± 0.1
AUUAAGCAAUAUUACGGUAG,-4.09 ± 0.29,-2.57 ± 0.22
UGCGAGCAAUAUUACGCUUG,-3.11 ± 0.37,-2.05 ± 0.3
UCUAAGCAAUAUUACGACCG,-0.676 ± 0.14,-0.00302 ± 0.22
AAGGAGCAAUAUUACGAUGG,-3.59 ± 0.27,-2.11 ± 0.23

Sequence,self-splicing fitness (ln) (30 °C),self-splicing fitness (ln) (37 °C)
CCCGAGCAAUAUUACGGUUC,-3.62 ± 0.2,-1.98 ± 0.2
CAUGAGCAAUAUUACGAUAC,-2.93 ± 0.35,–
ACACAGCAAUAUUACGAAAU,-2.47 ± 0.13,-1.87 ± 0.12
CCCUAGCAAUAUUACGCUGU,-4.59 ± 0.31,-2.63 ± 0.21
AAAGAGCAAUAUUACGACAC,-2.67 ± 0.29,-1.89 ± 0.41
GAAUAGCAAUAUUACGUGAA,-1.74 ± 0.092,-0.782 ± 0.11
GAUUAGCAAUAUUACGGACU,-0.413 ± 0.086,-0.223 ± 0.1
AUCGAGCAAUAUUACGUAAA,-3.43 ± 0.3,-1.53 ± 0.29
GCCGAGCAAUAUUACGAUGU,-0.691 ± 0.057,-0.267 ± 0.069
AUUAAGCAAUAUUACGCGUC,-2.77 ± 0.3,-2.19 ± 0.38
ACAAAGCAAUAUUACGCGCC,-0.241 ± 0.083,-0.055 ± 0.1
UACCAGCAAUAUUACGAUUC,-2.36 ± 0.21,-1.55 ± 0.18
ACGUAGCAAUAUUACGGACG,-1.88 ± 0.17,-0.579 ± 0.13
UGCAAGCAAUAUUACGCAUA,-2.59 ± 0.2,-2.33 ± 0.2
UUUAAGCAAUAUUACGCUCC,-2.1 ± 0.22,-0.172 ± 0.29
GGUAAGCAAUAUUACGGGAU,-2.82 ± 0.27,-0.913 ± 0.21
UAUAAGCAAUAUUACGUGAC,-2.15 ± 0.19,-0.695 ± 0.3
GUGAAGCAAUAUUACGUAUU,-1.21 ± 0.12,0.0695 ± 0.12
GGGCAGCAAUAUUACGCCGG,-1.51 ± 0.11,0.118 ± 0.14
GAUUAGCAAUAUUACGACGG,–,-2.39 ± 0.33
CGCUAGCAAUAUUACGCCUU,-2.49 ± 0.27,-0.069 ± 0.19
CGAGAGCAAUAUUACGCGUU,-2.8 ± 0.36,-2.46 ± 0.49
GAACAGCAAUAUUACGUGCC,-2.58 ± 0.14,-0.859 ± 0.12
UUGAAGCAAUAUUACGCACU,-0.156 ± 0.091,0.362 ± 0.1
AACCAGCAAUAUUACGCCGC,-4.1 ± 0.3,-2.45 ± 0.35

Sequence,self-splicing fitness (ln) (30 °C),self-splicing fitness (ln) (37 °C)
CUCGAGCAAUAUUACGGGUU,-3.47 ± 0.14,-3.05 ± 0.16
UUGGAGCAAUAUUACGUCUU,–,-2.09 ± 0.5
ACCAAGCAAUAUUACGCUUU,-2.41 ± 0.093,-1.45 ± 0.1
UACCAGCAAUAUUACGAUAU,-2.78 ± 0.12,-1.32 ± 0.12
AAACAGCAAUAUUACGUGGA,-3.1 ± 0.14,-1.95 ± 0.1
CCAUAGCAAUAUUACGGGCA,-3.32 ± 0.26,-2.95 ± 0.29
CCAGAGCAAUAUUACGCGUC,-3.45 ± 0.24,-3 ± 0.3
AAAUAGCAAUAUUACGAGCU,-1.37 ± 0.12,-0.386 ± 0.13
GGCGAGCAAUAUUACGUCCU,-2.41 ± 0.1,-1.28 ± 0.09
UCCUAGCAAUAUUACGCAUU,-3.92 ± 0.21,-1.81 ± 0.11
GUCGAGCAAUAUUACGAGGC,-3.01 ± 0.21,-3.06 ± 0.31
AAAGAGCAAUAUUACGUGGG,-3.99 ± 0.18,-3.8 ± 0.2
CAAUAGCAAUAUUACGUACG,-0.451 ± 0.063,-0.069 ± 0.078
ACGAAGCAAUAUUACGGAUA,-3.55 ± 0.32,-2.43 ± 0.23
ACAGAGCAAUAUUACGCCUU,-3.76 ± 0.42,-1.9 ± 0.3
GCGUAGCAAUAUUACGUAAA,-0.977 ± 0.21,-1.1 ± 0.25
GACUAGCAAUAUUACGGAUG,-2.9 ± 0.11,-1.29 ± 0.1
AUAGAGCAAUAUUACGAGGU,-3.58 ± 0.44,-2.94 ± 0.27
UGUAAGCAAUAUUACGUAUA,-1.21 ± 0.097,-0.761 ± 0.12
GUUGAGCAAUAUUACGGGAG,–,-2.9 ± 0.38
UAACAGCAAUAUUACGGCGU,-1.79 ± 0.11,-1.01 ± 0.1
GACGAGCAAUAUUACGAAAU,-2.5 ± 0.23,–
